Residue numbers refer to the chain shown, from its start. Bridges are numbered along the chain shown (N, C = ends).
T1: extracellular domain of activin receptor type IIB (ActRIIBecd), biotinylated (Homo sapiens (Human), UniProt Q13705 27-117, amino-biotinylated with amine-PEG3-Biotin)
T1 construct: immobilised on a streptavidin-coated sensor chip; also called biotinylated ActRIIBecd; extracellular domain of ActRIIB
T1 sequence: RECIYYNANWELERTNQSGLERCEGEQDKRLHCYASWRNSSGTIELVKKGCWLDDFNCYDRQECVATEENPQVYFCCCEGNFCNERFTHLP

B1: SEQ ID NO: 340, cysteine pairs C15-C15^b, C29-C64^b, C30-C62^b, C88-C92^a (designed binder)
chain: AQAKHKQRKRLKSSCKRHPLYNSKDPKACCVPTELSAPSPLYLDENEKPVLKNYQDMVVHGCGCRVDFKDVGWNDHAVAPPGYHAFYCHGECPFPLADHLNSDNHAIVQTKVNSV
modifications: disulfides C15-C15 (inter), C29-C64 (inter), C30-C62 (inter), C88-C92 (intra)
notes: homodimer by intermolecular disulfide
B2: SEQ ID NO: 284, cysteine pairs C59-C59^b, C8-C43^b, C9-C41^b, C88-C92^a (designed binder)
chain: NSKIPKACCVPTELSAISMLYLDENEKVVLKNYQDMVVEGCGCRAQAKHKQRKRLKSSCKRHPLYVDFSDVGWNDWIVAPPGYHAFYCHGECPFPLADHLNSTNHAIVQTLVNSV
modifications: disulfides C59-C59 (inter), C8-C43 (inter), C9-C41 (inter), C88-C92 (intra)
notes: as for B1
B3: SEQ ID NO: 308, cysteine pairs C59-C59^b, C8-C41^b, C9-C43^b, C88-C92^a (designed binder)
chain: NSKDPKACCVPTELSAPSPLYLDENEKPVLKNYQDMVVHGCGCRGQAKRKGYKRLKSSCKRHPLYVDFKDVGWNDHAVAPPGYHAFYCHGECPFPLADHLNSDNHAIVQTKVNSV
modifications: disulfides C59-C59 (inter), C8-C41 (inter), C9-C43 (inter), C88-C92 (intra)
notes: as for B1
B4: SEQ ID NO: 230, cysteine pairs C27-C65^a (designed binder)
chain: VDFKDVGWNDHAVAPPGYHAFYCHGECPFPLADHLNSDNHAIVQTKVNSVGQAKRKGYKRLKSSCKRHPLY
modifications: disulfides C27-C65 (intra)
B5: SEQ ID NO: 242, cysteine pairs C15-C15^b, C29-C64^a, C30-C62^a (designed binder)
chain: GQAKRKGYKRLKSSCKRHPLYNSKDPKACCVPTELSAPSPLYLDENEKPVLKNYQDMVVHGCGCR
modifications: disulfide 29-64, 30-62; also: homodimer via intermolecular C15-C15 disulfide
notes: as for B1
B6: SEQ ID NO: 194, cysteine pairs C23-C27^a (designed binder)
chain: VDFSDVGWNDWIVAPPGYHAFYCHGECPFPLADHLNSTNHAIVQTLVNSVAQAKHKQRKRLKSSCKRHPLY
modifications: disulfides C23-C27 (intra)
B7: SEQ ID NO: 260, cysteine pairs C15-C15^b, C80-C114^a, C79-C112^a, C44-C48^a (designed binder)
chain: AQAKHKQRKRLKSSCKRHPLYVDFSDVGWNDWIVAPPGYHAFYCHGECPFPLADHLNSTNHAIVQTLVNSVNSKIPKACCVPTELSAISMLYLDENEKVVLKNYQDMVVEGCGCR
modifications: disulfides C15-C15 (inter), C80-C114 (intra), C79-C112 (intra), C44-C48 (intra)
notes: as for B1
B8: SEQ ID NO: 324, cysteine pairs C79-C80^a (designed binder)
chain: B7 chain with S25K, W32H, I33A, T59D, L67K
modifications: disulfides C79-C80 (intra)
B9: SEQ ID NO: 236, cysteine pairs C59-C59^b, C8-C41^a, C9-C43^a (designed binder)
chain: NSKDPKACCVPTELSAPSPLYLDENEKPVLKNYQDMVVHGCGCRGQAKRKGYKRLKSSCKRHPLY
modifications: disulfide 8-41, 9-43; also: homodimer via intermolecular C59-C59 disulfide
notes: as for B1
B10: SEQ ID NO: 206, cysteine pairs C67-C71^a, C8-C43^b, C9-C41^b (designed binder)
chain: NSKIPKACCVPTELSAISMLYLDENEKVVLKNYQDMVVEGCGCRVDFSDVGWNDWIVAPPGYHAFYCHGECPFPLADHLNSTNHAIVQTLVNSV
modifications: disulfides C67-C71 (intra), C8-C43 (inter), C9-C41 (inter)
notes: as for B1
B11: SEQ ID NO: 324, cysteine pairs C80-C114^a, C79-C112^a, C44-C48^a (designed binder)
chain: B7 chain with S25K, W32H, I33A, T59D, L67K
modifications: disulfides C80-C114 (intra), C79-C112 (intra), C44-C48 (intra)
B12: SEQ ID NO: 316, cysteine pairs C67-C71^a (designed binder)
chain: NSKDPKACCVPTELSAPSPLYLDENEKPVLKNYQDMVVHGCGCRVDFKDVGWNDHAVAPPGYHAFYCHGECPFPLADHLNSDNHAIVQTKVNSVGQAKRKGYKRLKSSCKRHPLY
modifications: disulfides C67-C71 (intra)
B13: SEQ ID NO: 340, cysteine pairs C88-C92^a (designed binder)
chain: B1 chain
modifications: disulfides C88-C92 (intra)

What follows are binders tested against T1, extracellular domain of activin … (assay: BIAcore SPR as Example 5 (method not restated); SD ±1.55 nM).
Description: (§1) Biosensor experiments. In one embodiment, experiments were performed on a BIAcore™ T100/T200 instrument (Pharmacia Biosensor AB) in the multichannel mode (serial flow path involving flow cells 1+2+3+4). Flow rate was 10 μl/min; temperature was 25° C.; and data were recorded at 2.5 points/s. All four segments of a sensor chip CMS were coated with streptavidin (Sigma) to a density of 2000 pg/mm² (2000 resonance units) by the aminocoupling procedure. ActRIIBecd (10 mg) and amine-PEG3-Biotin (10 mg, Pierce, Rockford, Ill.) were dissolved in 200 μl H₂O and 10 mg NaCNBH₃ was added to prepare biotinylated ActRIIBecd. The reaction mixture was heated at 70° C. for 24 h, after that a further 10 mg NaCNBH₃ was added and the reaction was heated at 70° C. for another 24 h. After cooling to room temperature, the mixture was desalted with the spin column (3,000 molecular weight cut off (MWCO)). Biotinylated ActRIIBecd was collected, freeze-dried and used for streptavidin (SA) chip preparation. Amino-biotinylated ActRIIBecd was then immobilized independently on flow cells 2-4 for 10 minutes at a flow rate of 5 μL/min and a concentration of 20 μM in 10 mM sodium acetate, pH 4.0, at a density of 50-250 resonance units (RU). The stored polypeptides were dissolved in glycine buffer (2.5 g of glycine, 0.5 g of sucrose, 370 mg of L-glutamate, 10 mg of sodium chloride, and 10 mg of Tween 80 in 100 mL water, pH 4.5) to prepare 10 mg/mL solution and then diluted with previous glycine buffer to prepare analytes with various concentration. Sensograms were recorded during flow of the analyte (the ActRIIBecd-associated polypeptides (i.e., domains) as previously described) first through flow cell 1 (control) then through flow cell 2 (biotinylated ActRIIBecd). […] The sensograms obtained at 1.11, 3.33, 10, 30, and 90 nM analyte were evaluated for equilibrium binding, association rate, and dissociation rate by using the programs supplied with the instrument (BIA evaluation 2.1; Software Handbook. 1995; Pharmacia Biosensor AB).

B1 and B2 are within 1.5-fold of each other in Kd: 6.37 nM for the first, 6.91 nM for the second.

B3 showed a Kd of 6.73 nM.

What follows are binders tested against T1, extracellular domain of activin … (assay: BIAcore SPR as Example 5 (method not restated); SD ±1.63 nM).
Description: as §1, with “Biotinylated ActRIIBecd was collected, freeze-dried and used for streptavidin (SA) chip preparation. Amino-biotinylated ActRIIBecd was then immobilized independently on flow cells 2-4 for 10 minutes at a flow rate of 5 μL/min and a concentration of 20 μM in 10 mM sodium acetate, pH 4.0, at a density of 50-250 resonance units (RU). The stored polypeptides were dissolved in glycine buffer (2.5 g of glycine, 0.5 g of sucrose, 370 mg of L-glutamate, 10 mg of sodium chloride, and 10 mg of Tween 80 in 100 mL water, pH 4.5) to prepare 10 mg/mL solution and then diluted with previous glycine buffer to prepare analytes with various concentration.” left out

Going from B4 to B5, the Kd falls from 52.2 nM to 18.1 nM (2.9-fold).

The binders below were run against T1, extracellular domain of activin … (assay: BIAcore SPR as Example 5 (method not restated); SD ±1.67 nM).
Description: as §1, with “Biotinylated ActRIIBecd was collected, freeze-dried and used for streptavidin (SA) chip preparation. Amino-biotinylated ActRIIBecd was then immobilized independently on flow cells 2-4 for 10 minutes at a flow rate of 5 μL/min and a concentration of 20 μM in 10 mM sodium acetate, pH 4.0, at a density of 50-250 resonance units (RU). The stored polypeptides were dissolved in glycine buffer (2.5 g of glycine, 0.5 g of sucrose, 370 mg of L-glutamate, 10 mg of sodium chloride, and 10 mg of Tween 80 in 100 mL water, pH 4.5) to prepare 10 mg/mL solution and then diluted with previous glycine buffer to prepare analytes with various concentration.” left out

Compared with B6, B7 is 2.4-fold lower in Kd: 18.1 nM for the first, 7.45 nM for the second.

These binders were tested against T1, extracellular domain of activin … (assay: BIAcore SPR as Example 5 (method not restated); SD ±2.10 nM).
Description: as §1, with “Biotinylated ActRIIBecd was collected, freeze-dried and used for streptavidin (SA) chip preparation. Amino-biotinylated ActRIIBecd was then immobilized independently on flow cells 2-4 for 10 minutes at a flow rate of 5 μL/min and a concentration of 20 μM in 10 mM sodium acetate, pH 4.0, at a density of 50-250 resonance units (RU). The stored polypeptides were dissolved in glycine buffer (2.5 g of glycine, 0.5 g of sucrose, 370 mg of L-glutamate, 10 mg of sodium chloride, and 10 mg of Tween 80 in 100 mL water, pH 4.5) to prepare 10 mg/mL solution and then diluted with previous glycine buffer to prepare analytes with various concentration.” left out

First: B8
Second: B9
The Kd of the first is 1.8-fold higher: 29.3 nM for the first, 16.2 nM for the second. The second binds more tightly here.

Each binder was assayed against T1, extracellular domain of activin … (assay: BIAcore SPR as Example 5 (method not restated); SD ±2.15 nM).
Description: as §1, with “Biotinylated ActRIIBecd was collected, freeze-dried and used for streptavidin (SA) chip preparation. Amino-biotinylated ActRIIBecd was then immobilized independently on flow cells 2-4 for 10 minutes at a flow rate of 5 μL/min and a concentration of 20 μM in 10 mM sodium acetate, pH 4.0, at a density of 50-250 resonance units (RU). The stored polypeptides were dissolved in glycine buffer (2.5 g of glycine, 0.5 g of sucrose, 370 mg of L-glutamate, 10 mg of sodium chloride, and 10 mg of Tween 80 in 100 mL water, pH 4.5) to prepare 10 mg/mL solution and then diluted with previous glycine buffer to prepare analytes with various concentration.” left out

Compared with B10, B11 is 2.4-fold lower in Kd: 17 nM for the first, 7.22 nM for the second.

Each binder was assayed against T1, extracellular domain of activin … (assay: Mean KD column of Table 5; method not restated (BIAcore as Example 5)).
Description: (§2) Biosensor experiments. In one embodiment, experiments were performed on a BIAcore™ T100/T200 instrument (Pharmacia Biosensor AB) in the multichannel mode (serial flow path involving flow cells 1+2+3+4). Flow rate was 10 μl/min; temperature was 25° C.; and data were recorded at 2.5 points/s. All four segments of a sensor chip CMS were coated with streptavidin (Sigma) to a density of 2000 pg/mm² (2000 resonance units) by the aminocoupling procedure. ActRIIBecd (10 mg) and amine-PEG3-Biotin (10 mg, Pierce, Rockford, Ill.) were dissolved in 200 μl H₂O and 10 mg NaCNBH₃ was added to prepare biotinylated ActRIIBecd. The reaction mixture was heated at 70° C. for 24 h, after that a further 10 mg NaCNBH₃ was added and the reaction was heated at 70° C. for another 24 h. After cooling to room temperature, the mixture was desalted with the spin column (3,000 molecular weight cut off (MWCO)). Biotinylated ActRIIBecd was collected, freeze-dried and used for streptavidin (SA) chip preparation. Amino-biotinylated ActRIIBecd was then immobilized independently on flow cells 2-4 for 10 minutes at a flow rate of 5 μL/min and a concentration of 20 μM in 10 mM sodium acetate, pH 4.0, at a density of 50-250 resonance units (RU). The stored polypeptides were dissolved in glycine buffer (2.5 g of glycine, 0.5 g of sucrose, 370 mg of L-glutamate, 10 mg of sodium chloride, and 10 mg of Tween 80 in 100 mL water, pH 4.5) to prepare 10 mg/mL solution and then diluted with previous glycine buffer to prepare analytes with various concentration. Sensograms were recorded during flow of the analyte (the ActRIIBecd-associated polypeptides (i.e., domains) as previously described) first through flow cell 1 (control) then through flow cell 2 (biotinylated ActRIIBecd). The sensogram obtained for flow cell 1 was subtracted from the sensogram obtained for flow cell 2. The sensograms obtained at 1.11, 3.33, 10, 30, and 90 nM analyte were evaluated for equilibrium binding, association rate, and dissociation rate by using the programs supplied with the instrument (BIA evaluation 2.1; Software Handbook. 1995; Pharmacia Biosensor AB).

B12 and B13 are within 1.5-fold of each other in Kd: 4.67 nM for the first, 5.64 nM for the second.

Each binder was assayed against T1, extracellular domain of activin … (assay: Mean KD column of Table 5; method not restated (BIAcore as Example 5); species also listed in Table 4).
Description: as §2

B6 and B10 are within 1.5-fold of each other in Kd: 18.1 nM for the first, 17 nM for the second.

Compared with B1, B4 is 8.2-fold higher in Kd: 6.37 nM for the first, 52.2 nM for the second. The first binds more tightly here.

B7 and B11 are within 1.5-fold of each other in Kd: 7.45 nM for the first, 7.22 nM for the second.

First: B8
Second: B2
The Kd of the first is 4.2-fold higher: 29.3 nM for the first, 6.91 nM for the second.

B9 and B5 are within 1.5-fold of each other in Kd: 16.2 nM for the first, 18.1 nM for the second.

In the case of B3, the Kd is reported as 6.73 nM.
